To fix the notation:
B1: FLAG-ADD1 WT (adducin-1), transiently expressed in HEK293 cells [not stated] / GST-TPX2 aa 120–370 fusion protein [human] (parent)
chain 1: MNGDSRAAVVTSPPPTTAPHKERYFDRVDENNPEYLRERNMAPDLRQDFNMMEQKKRVSMILQSPAFCEELESMIQEQFKKGKNPTGLLALQQIADFMTTNVPNVYPAAPQGGMAALNMSLGMVTPVNDLRGSDSIAYDKGEKLLRCKLAAFYRLADLFGWSQLIYNHITTRVNSEQEHFLIVPFGLLYSEVTASSLVKINLQGDIVDRGSTNLGVNQAGFTLHSAIYAARPDVKCVVHIHTPAGAAVSAMKCGLLPISPEALSLGEVAYHDYHGILVDEEEKVLIQKNLGPKSKVLILRNHGLVSVGESVEEAFYYIHNLVVACEIQVRTLASAGGPDNLVLLNPEKYKAKSRSPGSPVGEGTGSPPKWQIGEQEFEALMRMLDNLGYRTGYPYRYPALREKSKKYSDVEVPASVTGYSFASDGDSGTCSPLRHSFQKQQREKTRWLNSGRGDEASEEGQNGSSPKSKTKWTKEDGHRTSTSAVPNLFVPLNTNPKEVQEMRNKIREQNLQDIKTAGPQSQVLCGVVMDRSLVQGELVTASKAIIEKEYQPHVIVSTTGPNPFTTLTDRELEEYRREVERKQKGSEENLDEAREQKEKSPPDQPAVPHPPPSTPIKLEEDLVPEPTTGDDSDAATFKPTLPDLSPDEPSEALGFPMLEKEEEAHRPPSPTEAPTEASPEPAPDPAPVAEEAAPSAVEEGAAADPGSDGSPGKSPSKKKKKFRTPSFLKKSKKKSDS
chain 2: RSLRLSAQKDLEQKEKHHVKMKAKRCATPVIIDEILPSKKMKVSNNKKKPEEEGSAHQDTAEKNASSPEKAKGRHTVPCMPPAKQKFLKSTEEQELEKSMKMQQEVVEMRKKNEEFKKLALAGIGQPVKKSVSQVTKSVDFHFRTDERIKQHPKNQEEYKEVNFTSELRKHPSSPARVTKGCTIVKPFNLSQGKKRTFDETVSTYVPLAQQVEDFHKRTPNRYHLRSKKDDINLLPSKSSVTKICRDPQTP

In paper PMC6073210, “Adducin‐1 is essential for spindle pole integrity through its interaction with TPX2” (EMBO Reports, 2018) one finds percent of parent data, which are given here for one variant.

Variants of B1 are the subject of the assay. As to the kind of experiment: GST pull-down (immunoblot quantification). To be noted: with GST-TPX2 aa 120–370 fusion protein [human]; lysates from HEK293 cells; five independent experiments; means ± s.d.; parent: 100; read off a plot.
Turning to chain 1 S726A, the percent of parent stood at 40%.
